One molecule from patent US20080056997A1 can be followed below.

This test has as its target human domain D of tenascin C (TnC-D) (human) (UniProt P24821). As to the kind of experiment: method not stated in the sentence (ELISA-positive clone, further characterization). A general note: An ELISA detects its analyte on a solid surface through an enzyme-linked reagent.
Sequence of UniProt P24821 (P24821 1622-1711): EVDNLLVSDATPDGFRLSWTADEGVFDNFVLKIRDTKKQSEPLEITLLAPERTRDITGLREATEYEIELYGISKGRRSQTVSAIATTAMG

B1: scFv(P12) (scFv, part only; not given: VH-VL peptide linker, part only)
scFv, part: EVQLVESGGGLVQPGGSLRLSCAASGFTFGQYSMSWVRQAPGKGLEWVSAITGTGGETYYADSVEGRFTISRDNSKNTLYLQMNSLRAEDTAVYYCAKGRRIFDYWGQGTLVTVSRSSELTQDPAVSVALGQTVRITCQGDSLRRQPASWYQQKPGQAPVLVIYYKKLRPSGIPDRFSGSSSGNTASLTITGAQAEDEADYYCNSFSPKPKPVVFGGGTKLTVLG
As for B1, the factor of affinity improvement compared to scFv(D11) turned out to be 4.8 fold.
